In US11191811B2, “Osteocalcin as a treatment for frailty associated with aging” (THE TRUSTEES OF COLUMBIA UNIVERSITY IN THE CITY OF NEW YORK, priority 2014, dated 2021):

Test: Circulating osteocalcin and insulin levels after osteocalcin delivery (ELISA)
Type: in vivo, mouse
Experimental: First, whether a single intraperitoneal injection of uncarboxylated mouse osteocalcin (osteocalcin) (100 ng/g of body weight) immediately before exercise would improve the exercise capacity of 3 month-old WT mice was tested.
To determine if osteocalcin has the same ability in older mice, 12 and 15 month-old mice that have low circulating osteocalcin levels were injected prior to running with 500 ng/g of body weight of osteocalcin in order to raise their circulating levels substantially. […] This was due to an increase in the phosphorylation of Akt, AMPK and HSL, as well as in glucose uptake, that occurred to a greater extent in oxidative muscles that express Gprc6a at the highest level, than in glycolytic muscles (FIG. 31C-F). Whether chronic delivery of osteocalcin through mini-pumps (90 ng/hour) for 28 days would increase muscle function in 9 month old mice that have the lowest circulating osteocalcin levels was also tested. […] This improved ability to perform exercise was caused in part by an increase in the expression in muscle of the fatty acid transporter Fatp1 and an activation of the Akt pathway (FIG. 31H-).
Serum osteocalcin, PINP, CTX, and insulin levels were measured using ELISA assays. Blood glucose level was measured using an Accu-Check glucometer. Urine 3-MHT was measured as previously described (Aranibar et al., 2011, Anal. Biochem. 410:84-91). […]

uncarboxylated osteocalcin: Recombinant uncarboxylated mouse osteocalcin, bacterially produced, purified on glutathione beads and cleaved from the GST subunit by thrombin (YLGASVPSPDPLEPTREQCELNPACDELSDQYGLKTAYKRIYGITI)
circulating osteocalcin levels (3 month-old WT mice, single i.p. injection 100 ng/g): increased
circulating osteocalcin levels (mini-pumps 90 ng/hour for 28 days, 9 month old mice): increased
